Data set [1] deals with T1, SarA (Staphylococcus aureus MRSA252, UniProt Q6GJ52 1-124).
T1 sequence: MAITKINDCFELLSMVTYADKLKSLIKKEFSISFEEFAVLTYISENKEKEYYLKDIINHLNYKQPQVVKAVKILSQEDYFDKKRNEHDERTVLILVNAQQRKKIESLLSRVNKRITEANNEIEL
The experiment in a line: EMSA; printed as >=1.8 uM; no saturation up to 3.6 uM, binding stated; EMSA: 10 mM Tris-HCl pH 7.5, 50 mM KCl, 1 mM DTT, 5 mM MgCl2, 2.5% glycerol, 1 ug poly(dI-dC), 200 ng herring sperm DNA, 30 min, temperature not stated, 6% native gel; Kd = protein at 50% bound DNA. Footprinting: same buffer, 37 C, DNase I at 25 C. To be noted: protein: recombinant; tags: none (pET22b, pelB leader removed); chain copies: 2; label: 5'-32P. For orientation: In EMSA bound probe runs differently from free probe, usually more slowly.

Data set [2] has as its target T1, SarA. The data set can be described thus: EMSA; no binding up to 1.8 uM SarA; EMSA: 10 mM Tris-HCl pH 7.5, 50 mM KCl, 1 mM DTT, 5 mM MgCl2, 2.5% glycerol, 1 ug poly(dI-dC), 200 ng herring sperm DNA, 30 min, temperature not stated, 6% native gel; Kd = protein at 50% bound DNA. Footprinting: same buffer, 37 C, DNase I at 25 C. The conditions noted are these: protein: recombinant; tags: none (pET22b, pelB leader removed); chain copies: 2; label: 5'-32P.

Data set [3] addresses T1, SarA. The experiment in a line: EMSA; EMSA: 10 mM Tris-HCl pH 7.5, 50 mM KCl, 1 mM DTT, 5 mM MgCl2, 2.5% glycerol, 1 ug poly(dI-dC), 200 ng herring sperm DNA, 30 min, temperature not stated, 6% native gel; Kd = protein at 50% bound DNA. Footprinting: same buffer, 37 C, DNase I at 25 C. The conditions noted are these: protein: recombinant; tags: none (pET22b, pelB leader removed); chain copies: 2; label: 5'-32P; blunt.

A value given as a limit tells only on which side of the number the result lay.

The Kd is the concentration at which binding is half-saturated.

B1: seqA1 (dsDNA)
DNA 1: CATTATAGCCTTAAATTGTAGTACTTTATAGTAAAAAATACAAATGTTATGTC
DNA 2: GACATAACATTTGTATTTTTTACTATAAAGTACTACAATTTAAGGCTATAATG
With B1, the Kd in data set [1] was > 1800 nM.

B2: seqB1 (dsDNA)
DNA 1: CATATTAGAAAAACTTATTACTATGTAGCGTAAAGC
DNA 2: GCTTTACGCTACATAGTAATAAGTTTTTCTAATATG
Take B2: the binding result in data set [2] is “no binding”.

B3: Pagr 45-bp (dsDNA)
DNA 1: GTAAATTTTTTTATGTTAAAATATTAAATACAAATTACATTTAAC
DNA 2: GTTAAATGTAATTTGTATTTAATATTTTAACATAAAAAAATTTAC
With B3, the equilibrium dissociation constant (Kd) in data set [3] is ~400 nM.

(Values after article PMC3431356, “Staphylococcus aureus Methicillin-Resistance Factor fmtA Is Regulated by the Global Regulator SarA”.)
